# In patent publication US20100111943:
# Biological target: FLAG (F)-tagged hsp90α (wild type), P07900
row,Protein,"in vitro acetylation of hsp90α, Western analysis with anti-AcK antibody"
1,p300 protein (upstate) (protein) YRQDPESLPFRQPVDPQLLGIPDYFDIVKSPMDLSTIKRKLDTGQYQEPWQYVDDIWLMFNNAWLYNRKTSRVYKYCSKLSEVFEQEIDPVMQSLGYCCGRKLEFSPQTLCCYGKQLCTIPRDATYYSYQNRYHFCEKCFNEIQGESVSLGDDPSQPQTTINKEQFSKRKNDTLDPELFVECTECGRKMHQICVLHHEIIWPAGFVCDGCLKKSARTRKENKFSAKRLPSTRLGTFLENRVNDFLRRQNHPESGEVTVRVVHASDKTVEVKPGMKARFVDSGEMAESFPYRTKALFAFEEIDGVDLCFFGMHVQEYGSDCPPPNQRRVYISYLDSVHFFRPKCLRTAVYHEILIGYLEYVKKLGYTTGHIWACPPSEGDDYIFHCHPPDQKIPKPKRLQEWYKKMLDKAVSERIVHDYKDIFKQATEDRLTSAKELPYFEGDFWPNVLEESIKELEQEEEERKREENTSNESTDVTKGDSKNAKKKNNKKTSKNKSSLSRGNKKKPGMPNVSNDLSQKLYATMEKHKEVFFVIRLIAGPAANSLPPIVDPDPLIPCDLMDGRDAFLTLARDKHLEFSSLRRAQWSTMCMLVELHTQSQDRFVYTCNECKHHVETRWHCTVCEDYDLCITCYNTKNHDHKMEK,Co-incubation with p300 was discovered to dose-dependently stimulate the acetylation of hsp90α
2,PCAF (protein) MSEAGGAGPGGCGAGAGAGAGPGALPPQPAALPPAPPQGSPCAAAAGGSGACGPATAVAAAGTAEGPGGGGSARIAVKKAQLRSAPRAKKLEKLGVYSACKAEESCKCNGWKNPNPSPTPPRADLQQIIVSLTESCRSCSHALAAHVSHLENVSEEEMNRLLGIVLDVEYLFTCVHKEEDADTKQVYFYLFKLLRKSILQRGKPVVEGSLEKKPPFEKPSIEQGVNNFVQYKFSHLPAKERQTIVELAKMFLNRINYWHLEAPSQRRLRSPNDDISGYKENYTRWLCYCNVPQFCDSLPRYETTQVFGRTLLRSVFTVMRRQLLEQARQEKDKLPLEKRTLILTHFPKFLSMLEEEVYSQNSPIWDQDFLSASSRTSQLGIQTVINPPPVAGTISYNSTSSSLEQPNAGSSSPACKASSGLEANPGEKRKMTDSHVLEEAKKPRVMGDIPMELINEVMSTITDPAAMLGPETNFLSAHSARDEAARLEERRGVIEFHVVGNSLNQKPNKKILMWLVGLQNVFSHQLPRMPKEYITRLVFDPKHKTLALIKDGRVIGGICFRMFPSQGFTEIVFCAVTSNEQVKGYGTHLMNHLKEYHIKHDILNFLTYADEYAIGYFKKQGFSKEIKIPKTKYVGYIKDYEGATLMGCELNPRIPYTEFSVIIKKQKEIIKKLIERKQAQIRKVYPGLSCFKDGVRQIPIESIPGIRETGWKPSGKEKSKEPRDPDQLYSTLKSILQQVKSHQSAWPFMEPVKRTEAPGYYEVIRFPMDLKTMSERLKNRYYVSKKLFMADLQRVFTNCKEYNPPESEYYKCANILEKFFFSKIKEAGLIDK,This was not seen with PCAF
